Experiment [1] concerns the target T1, human tissue factor (human TF, Lake Pharma) (human, UniProt P13726 33-251, limits assumed).
T1 construct: bought recombinant antigen; also called CD142
The experiment is described as follows: Biacore SPR, single-point off-rate (100 nM antigen), antibody captured on anti-Fc. Here is the method: (§1) Anti-Fc polyclonal antibodies were immobilized onto a CM4 chip (Cytiva #BR100534) using amine coupling chemistry (Human Antibody Capture Kit, Cytiva #BR100839). The immobilization steps were carried out at a flow rate of 25 μL/min in 1×HBS-EP+buffer (Cytiva #BR100669). The sensor surfaces were activated for 7 min with a mixture of N-hydroxysuccinimide (NHS, 0.05 M) and 1-ethyl-3-(3-dimethylaminopropyl)-carbodiimide (EDC, 0.2 M). The anti-Fc polyclonal antibodies were injected over all 4 flow cells at a concentration of 25 μg/mL in 10 mM sodium acetate, pH 4.5, for 7 min. Ethanolamine (1 M, pH 8.5) was injected for 7 min to block any remaining activated groups.
(§2) Off-rate and kinetic binding experiments were performed at 25° C. using 1×HBS-EP+buffer. Antibodies were injected over the anti-Fc surface at a concentration of 3 μg/mL for 12 seconds at a flow rate of 10 μL/min on flow cells 2, 3 and 4, followed by a buffer wash for 30 seconds at the same flow rate. Single point off-rate analysis was carried out using an antigen concentration of 100 nM. […] After capturing ligand (antibody) on the anti-Fc surface, the analyte (human TF, Lake Pharma; cynomolgus TF, Sino Bio #90885-C08H; mouse TF, R&D Systems #3178-PA) was bound for 180 seconds, followed by a 420 second dissociation phase at a flow rate of […]. Between each ligand capture and analyte binding cycle, regeneration was carried out using 2 injections of 10 mM glycine pH 2.0 for 30 seconds at 30 μL/min, followed by a 30 second buffer wash step.

Experiment [2] deals with T2, cynomolgus tissue factor (cynomolgus TF, Sino Bio #90885-C08H) (cynomolgus monkey, UniProt P13726 33-251 (human entry)).
T2 construct: bought recombinant antigen; also called cyno TF
T2 chain: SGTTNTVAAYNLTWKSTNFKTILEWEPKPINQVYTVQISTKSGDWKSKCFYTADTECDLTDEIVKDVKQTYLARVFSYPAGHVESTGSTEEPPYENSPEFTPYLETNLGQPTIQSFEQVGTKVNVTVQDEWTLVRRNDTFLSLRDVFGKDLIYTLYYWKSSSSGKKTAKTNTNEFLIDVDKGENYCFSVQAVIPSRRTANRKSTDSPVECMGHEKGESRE
The description is as above. As for the experimental part: as §1, §2

In experiment [3] the target is T3, tissue factor reagent of the Tissue Factor Activity Assay Kit (Abcam #ab108906) (UniProt P13726 33-295, limits assumed). The experiment is described as follows: cell-based or functional assay.
For experiment [4], the target named is T4, human tissue factor on cells (human, UniProt P13726 33-295).
T4 construct: cell-surface TF, transfected (HEK293T-humanTF) or endogenous (tumour lines, keratinocytes); the cell line is named under assay; also called HEK293T-humanTF; TF on BxPC3, primary human keratinocytes, NCI-H292, HCC1954, NCI-H1975
The experiment is described as follows: flow cytometry on BxPC3 cells (TF positive), one-site fit of MFI. An excerpt: (§3) HEK293T, BxPC3 cells (TF positive) and NCI-H1703 (TF negative) cells were obtained from ATCC (American Type Culture Collection) and maintained in DMEM: F12 (1:1), high glucose (Corning) supplemented with 10% heat-inactivated fetal bovine serum (ThermoScientific), 1× Penicillin/Streptomycin (Corning) and 2 mmol glutamax (Thermo Fisher Scientific). To generate cells that stably expressing human tissue factor (HEK293T-humanTF) or cynomolgus tissue factor (HEK293T-cynoTF), HEK293T cells were transfected with plasmid vectors that contain the corresponding protein sequence and stable clones were selected with puromycin.
(§4) For a fluorescence-activated cell sorting (FACS) cell-binding assay, cells were collected by Accutase and counted by the Vi-CELL Cell Viability Analyzersharvested and, then re-suspended in FACS buffer (DPBS buffer supplemented with 1% bovine serum albumin). A total of 200,000 cells in 100 μL were incubated on ice with 100 μL of anti-TF antibodies in each well of a 96-well plate. Cells were washed twice with ice-cold FACS buffer and then incubated on ice for 60 mins with 5 μg/mL Alexa 647-labeled donkey anti-human Fc antibody (Jackson ImmunoResearch). Unstained cells and cells stained with secondary antibody alone were used as controls. Cells were washed twice with FACS buffer and analyzed using a BD FACS Canto system. Geometric mean fluorescence intensities (MFI) were fitted using non-linear regression analysis with one site specific binding equation on GraphPad Prism (GraphPad Software; La Jolla, CA).

In experiment [5] the target is T3, tissue factor reagent of the Tissue …. Kind of experiment: cell-based or functional assay. This is another data set of the same source.
Experiment [6] addresses T4, human tissue factor on cells. The experiment is described as follows: flow cytometry on HEK293T-humanTF cells, one-site fit of MFI.
Description: as §3, §4

Experiment [7] concerns the target T1, human tissue factor (human TF, Lake …). The experiment is described as follows: Biacore SPR kinetics, antibody captured on anti-Fc, 1:1 Langmuir fit. As for the experimental part:
as §1, §2
(§5) The data were fit with the Biacore T200 Evaluation software, using a 1:1 Langmuir binding model. KD (affinity, nM) was determined as a ratio of the kinetic rate constants calculated from the fits of the association and dissociation phases.

In experiment [8] the target is T2, cynomolgus tissue factor (cynomolgus …). Described as above. As for the experimental part: as §1, §2, §5
Experiment [9] addresses T5, cynomolgus tissue factor on HEK293T-cynoTF cells (cynomolgus monkey, UniProt P13726 33-294 (human entry)).
T5 construct: stably transfected HEK293T cells
T5 chain: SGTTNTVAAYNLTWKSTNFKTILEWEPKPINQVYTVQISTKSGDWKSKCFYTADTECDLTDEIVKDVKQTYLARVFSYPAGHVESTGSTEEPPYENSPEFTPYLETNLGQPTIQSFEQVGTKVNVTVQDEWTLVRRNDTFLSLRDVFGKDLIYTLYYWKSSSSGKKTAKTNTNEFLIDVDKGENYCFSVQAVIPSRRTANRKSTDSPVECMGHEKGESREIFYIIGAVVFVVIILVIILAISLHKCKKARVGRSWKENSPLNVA
Kind of experiment: flow cytometry on HEK293T-cynoTF cells, one-site fit of MFI.
Description: as §3, §4

Experimental findings from patent US20250122306A1 (SUTRO BIOPHARMA, published 2025) are described below.

Read-outs that look alike come from different tables or passages of the source.

B1: 2842-B01 HC1/LC1 (antibody, V domains shown)
VH: QVQVVESGGGLVKPGGSLRLSCAASGFSISSYDMSWIRQAPGKGLEWIGIIGSNGRTYYADSVKGRFTISRNTNENTVYLQMNSLRAEDTAVYYCARGLYDGTGNIWGQGTLVTVSS
VL: DLQMTQSPSSLSASVGDRVTITCRASQSVYGNNWLSWYQQKPGKAPKLLIYGASKLASGVPSRFSGSGSGTQFTLTISSLQPEDFATYYCQGTYYSGDWYFAFGQGTKVEIK
notes: humanized rabbit antibody, variable regions fused to human IGHG1 and IGKC
B1: the koff in [1] stood at 0.000727 s⁻¹; in [2] it was 0.00352 s⁻¹. Besides, in experiment [3], the “FX conversion (% inhibition), 1000 nM antibody” value (“FX conversion (% inhibition)” below) is -0.45%.

B2: 2842-B01 HC1/LC2 (antibody, V domains shown)
VH: QVQVVESGGGLVKPGGSLRLSCAASGFSISSYDMSWIRQAPGKGLEWIGIIGSNGRTYYADSVKGRFTISRNTNENTVYLQMNSLRAEDTAVYYCARGLYDGTGNIWGQGTLVTVSS
VL: ELVMTQSPPTLSLSPGERVTLSCRASQSVYGNNWLSWYQQKPGQAPRLLIYGASKLATSIPARFSGSGSGTQFTLTISSLQPEDFAVYYCQGTYYSGDWYFAFGQGTKVEIK
notes: as for B1
With B2, the koff in [1] was 0.000691 s⁻¹; in experiment [2], 0.00142 s⁻¹. The “FX conversion (% inhibition)” value in experiment [3] is -0.99%.

B3: SRP2901-D03 (antibody, V domains shown)
VH: EVQLVESGGGLVQPGGSLRLSCAASGFSISSYDMSWVRQAPGKGLEWIGIIGSNGRTYYPDSVKGRFTISRDNSKNTVTLQMNSLRAEDTAVYYCARGLYDGTGNIWGQGTLVTVSS
VL: DLQMTQSPSSLSASVGDRVTITCRASQSVYGNNWLSWYQQKPGKAPKLLIYGASKLASGVPSRFSGSGSGTQFTLTISSLQPEDFATYYCQGTYYSGDWYFAFGQGTKVEIK
notes: humanized rabbit antibody, variable regions fused to human IGHG1 and IGKC; also called 2842-B01 HC3/LC1
On to B3, for which, in [4], the “Bmax (MFI)” value turned out to be 29100 MFI and the Kd is 0.344 nM. This molecule also came in with a koff in experiment [1] of 0.000416 s⁻¹. Moreover, in experiment [2], the koff was found to be 0.00187 s⁻¹. In addition, the “FX conversion (% inhibition)” value in experiment [3] is -1.6%.

B4: SRP2799-B03 (antibody, IgG1, V domains shown)
VH: EVQLVESGGGLVQPGGSLRLSCAASGFNISDYWIHWVRQAPGKGLEWVGFIDPYNGYTNYADSVKGRFTISADTSKNTAYLQMNSLRAEDTAVYYCARGYGSWPDYLDYWGQGTLVTVSS
VL: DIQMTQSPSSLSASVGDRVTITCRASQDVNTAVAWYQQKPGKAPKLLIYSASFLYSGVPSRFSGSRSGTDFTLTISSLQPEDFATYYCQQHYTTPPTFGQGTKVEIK
notes: also called SRP2799-B03 (parent)
For B4, in [4], the “Bmax (MFI)” value worked out at 45400 MFI and the Kd stood at 4.7 nM. The molecule also came in with a dissociation rate constant (koff) in [1] of 0.00415 s⁻¹. This molecule gave a koff in [2] of 0.00169 s⁻¹. Further, in experiment [5], the “FX conversion (% inhibition)” value stood at 2.41%.

B5: SRP2799-B06 (antibody, IgG1, V domains shown)
VH: EVQLVESGGGLVQPGGSLRLSCAASGFNISDYNIHWVRQAPGKGLEWVGYIDPSNGYTYYADSVKGRFTISADTSKNTAYLQMNSLRAEDTAVYYCARDDQSVSSPFDYWGQGTLVTVSS
VL: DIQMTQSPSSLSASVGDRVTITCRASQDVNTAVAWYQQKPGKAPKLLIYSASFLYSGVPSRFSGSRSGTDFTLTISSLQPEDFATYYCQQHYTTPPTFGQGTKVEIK
notes: also called SRP2799-B06 (parent)
For B5, in experiment [4], the “Bmax (MFI)” value amounted to 46300 MFI and binding was put at a Kd of 4.1 nM. The molecule also yielded a koff in experiment [1] of 0.00827 s⁻¹. In experiment [2], this molecule had a koff of 0.00166 s⁻¹. In addition, the “FX conversion (% inhibition)” value in experiment [5] was -1.01%.

B6: mAb 49: aTF_2842-G04_HC2_Y180/F404TAG; aTF_2842-G04_LC2 (antibody, IgG1, V domains shown)
VH: QVQVQESGPGLVKPPGTLSLTCAVSGFSLSYYGVSWVRQPPGKGLEWIGTIDSSGRTYYNPSLKSRVTISNDNAPNTVSLKLSSVTAADTAVYYCARDFYGWNSGALDIWGQGTLVTVSS
VL: DLQLTQSPSTLSASVGDRVTITCRASQSVYSNKYLSWYQQKPGKAPKLLIYKASTLASGVPSRFSGSGSGTEFTLTISSLQPDDFATYYCAAAYSDDSDTAFGQGTKVEIKR
modifications: non-natural amino acid (pAMF) at TAG sites Y180 and F404 (EU), * in the sequence
notes: unconjugated full-length IgG1/kappa; also called 2842-G04 HC2/LC2
Turning to B6, in experiment [6], the “Bmax (MFI)” value stood at 244000 MFI and the Kd amounted to 1.4 nM. In experiment [7], this molecule registered a Kd of 13.8 nM, a koff of 0.000865 s⁻¹ and a kon of 62500 M⁻¹ s⁻¹. Moreover, in experiment [8], the equilibrium dissociation constant (Kd) was 29.9 nM, the dissociation rate constant (koff) was determined as 0.00241 s⁻¹ and the kon came to 80800 M⁻¹ s⁻¹. In addition, in experiment [9], the “Bmax (MFI)” value was 465000 MFI and the Kd amounted to 5.1 nM.

B7: SRP2799-A05 (antibody, IgG1, V domains shown)
VH: EVQLVESGGGLVQPGGSLRLSCAASGFNISSYWIHWVRQAPGKGLEWVGYIDPYSGSTYYADSVKGRFTISADTSKNTAYLQMNSLRAEDTAVYYCARSDYYYVDEYMDYWGQGTLVTVSS
VL: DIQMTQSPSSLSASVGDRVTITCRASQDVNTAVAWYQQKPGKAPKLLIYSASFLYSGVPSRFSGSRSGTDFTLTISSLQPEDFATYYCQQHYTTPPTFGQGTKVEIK
notes: also called SRP2799-A05 (parent)
In the case of B7, in experiment [4], the “Bmax (MFI)” value came to 52700 MFI and the equilibrium dissociation constant (Kd) turned out to be 26.1 nM. The koff in [1] came out at 0.00304 s⁻¹. Besides, in [2], the koff was 0.0337 s⁻¹. Besides, in [5], the “FX conversion (% inhibition)” value amounted to 1.12%.
